These results are taken from publication PMC6404062.

The target of the first assay is Human IgG4 monoclonal antibody (human). Briefly: ELISA; data not shown: the same plates in DMEM with 5% FCS and 5 g/L ovalbumin, hIgG4-coated wells compared with control wells coated with 200 µL of 100 µg/mL lactoferrin in TBS. On the technique in general: ELISA stands for enzyme-linked immunosorbent assay.
In the case of NVQYFAV [Clone 3 heptapeptide NVQYFAV, displayed on M13 phage], the fold absorbance over lactoferrin-coated control wells is over 3 fold.

For the molecule TNIESLK [Clone 36 heptapeptide TNIESLK, displayed on M13 phage], the fold absorbance over lactoferrin-coated control wells is over 3 fold.

As for SHLSKNF [Clone 44 heptapeptide SHLSKNF, displayed on M13 phage], the fold absorbance over lactoferrin-coated control wells was over 3 fold.

In the case of QPQMSHM [Clone 34 heptapeptide QPQMSHM, displayed on M13 phage], the fold absorbance over lactoferrin-coated control wells is over 3 fold.

As for CPSTHWK [Clone 1 heptapeptide CPSTHWK, displayed on M13 phage], the fold absorbance over lactoferrin-coated control wells was over 3 fold.

NCHKCWN [Clone 40 heptapeptide NCHKCWN, displayed on M13 phage]: the fold absorbance over lactoferrin-coated control wells was over 3 fold.

On to ASHTQKS [Clone 5 heptapeptide ASHTQKS, displayed on M13 phage], for which the fold absorbance over lactoferrin-coated control wells is over 3 fold.

The target is the same in another assay. Briefly: ELISA; hIgG4 coated on wells as in the screening; 2.5 × 10^11 phage particles in 100 µL per well in DMEM with 5% FCS and 5 g/L ovalbumin, in triplicate; original phage library assayed beside the clones.
As to NVQYFAV [Clone 3 heptapeptide NVQYFAV, displayed on M13 phage], the ELISA signal was over 0.85 AU, the fold ELISA signal over the original phage library is over 4 fold and the fold absorbance over the original phage library is over 2.5 fold.

Regarding TNIESLK [Clone 36 heptapeptide TNIESLK, displayed on M13 phage], the fold absorbance over the original phage library is over 2.5 fold.

In turn, SHLSKNF [Clone 44 heptapeptide SHLSKNF, displayed on M13 phage] showed a fold absorbance over the original phage library of over 2.5 fold.

Consider QPQMSHM [Clone 34 heptapeptide QPQMSHM, displayed on M13 phage], for which the fold absorbance over the original phage library is over 2.5 fold.

Molecule CPSTHWK [Clone 1 heptapeptide CPSTHWK, displayed on M13 phage] returned a fold absorbance over the original phage library of over 2.5 fold.

The molecule NCHKCWN [Clone 40 heptapeptide NCHKCWN, displayed on M13 phage] came in with an ELISA signal of over 0.85 AU, a fold ELISA signal over the original phage library of over 4 fold and a fold absorbance over the original phage library of over 2.5 fold.

Turning to ASHTQKS [Clone 5 heptapeptide ASHTQKS, displayed on M13 phage], the fold absorbance over the original phage library is over 2.5 fold.
